Assay results reported in patent US5516515A, “Separation of alpha interferon receptor proteins and antibodies therefor” (priority 1990, dated 1996).

Legend:
[1] = system: human HEp-2 cells challenged with vesticular stomatitis virus (Indiana Strain); test: cytopathic effect (CPE) assay of interferon biological (antiviral) activity; assay type: cell-based; details: NIH reference units
Protocol: Ultrapure natural interferon alpha was prepared by incubating human peripheral blood cultures with Sendai virus. The culture supernatant was purified over an anti-interferon alpha column (NK-2 sepharose). […] The biological activity of interferons alpha, beta and gamma were determined by the cytopathic effect (CPE) assay on human HEp-2 cells challenged with vesticular stomatitis virus (Indiana Strain). All titers were calibrated against the NIH reference standards for alpha (#Ga23-902-503) and gamma (Gg 23-901-530) interferons. All titers are expressed as NIH reference units.

[2] = molecular target: T1, Daudi cell receptor sites (Homo sapiens, UniProt P17181+P48551); test: Competition experiments: displacement of 125I-IFN-alpha-2 from Daudi cells; assay type: binding; details: 100 fold excess of unlabeled IFN
T1 construct: endogenous in cells; host or cells: Daudi (human lymphoblastoid) cells
T1 sequence (P48551 27-515): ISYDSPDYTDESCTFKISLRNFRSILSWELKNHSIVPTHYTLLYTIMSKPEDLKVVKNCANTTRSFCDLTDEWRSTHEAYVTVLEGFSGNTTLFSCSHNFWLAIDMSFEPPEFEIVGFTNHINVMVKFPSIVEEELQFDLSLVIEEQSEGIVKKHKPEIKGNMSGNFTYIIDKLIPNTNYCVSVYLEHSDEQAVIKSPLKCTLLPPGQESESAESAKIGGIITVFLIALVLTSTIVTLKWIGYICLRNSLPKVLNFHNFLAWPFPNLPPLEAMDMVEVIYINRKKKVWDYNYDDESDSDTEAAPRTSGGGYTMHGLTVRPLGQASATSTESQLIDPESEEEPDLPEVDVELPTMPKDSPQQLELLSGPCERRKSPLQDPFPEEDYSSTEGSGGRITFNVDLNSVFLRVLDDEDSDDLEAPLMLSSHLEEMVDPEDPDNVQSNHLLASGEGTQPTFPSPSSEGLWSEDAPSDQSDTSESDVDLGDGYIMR
T1 sequence (P17181 28-557): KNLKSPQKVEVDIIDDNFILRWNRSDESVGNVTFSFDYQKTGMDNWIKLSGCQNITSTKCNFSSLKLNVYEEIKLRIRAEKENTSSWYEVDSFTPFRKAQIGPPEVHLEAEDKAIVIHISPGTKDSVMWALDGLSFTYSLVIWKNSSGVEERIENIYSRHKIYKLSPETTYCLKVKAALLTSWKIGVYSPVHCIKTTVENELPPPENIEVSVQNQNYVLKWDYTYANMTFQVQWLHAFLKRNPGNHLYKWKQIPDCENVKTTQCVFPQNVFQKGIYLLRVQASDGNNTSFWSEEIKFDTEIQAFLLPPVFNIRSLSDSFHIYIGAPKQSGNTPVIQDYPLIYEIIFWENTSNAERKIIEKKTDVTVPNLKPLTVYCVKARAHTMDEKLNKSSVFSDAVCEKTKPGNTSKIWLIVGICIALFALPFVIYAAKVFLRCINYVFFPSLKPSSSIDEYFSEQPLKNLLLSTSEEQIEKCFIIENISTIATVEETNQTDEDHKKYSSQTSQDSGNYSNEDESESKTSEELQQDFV

B1: IFN gamma: Human IFN gamma produced in human peripheral blood cultures containing lymphocytes stimulated with phytohemagglutinin, purified by affinity chromatography (protein, UniProt P01579 24-161, looked up)
Interferon gamma: QDPYVKEAENLKKYFNAGHSDVADNGTLFLGILKNWKEESDRKIMQSQIVSFYFKLFKNFKDDQSIQKSVETIKEDMNVKFFNSNKKKRDDFEKLTNYSVTDLNVQRKAIHELIQVMAELSPAAKTGKRKRSQMLFRG
specific activity [1]: 2×10^7 U/rag of protein | reduction in the binding of 125I-IFN-alpha2 for Daudi cells [2]: does not compete
